Results: patent US20230250160A1 (HOBER BIOTECH, published 2023)

T1: C-reactive protein (human (produced in the Human Secretome …, UniProt P02741 19-224))
T1 construct: also called CRP; bCRP
T1 sequence (looked up): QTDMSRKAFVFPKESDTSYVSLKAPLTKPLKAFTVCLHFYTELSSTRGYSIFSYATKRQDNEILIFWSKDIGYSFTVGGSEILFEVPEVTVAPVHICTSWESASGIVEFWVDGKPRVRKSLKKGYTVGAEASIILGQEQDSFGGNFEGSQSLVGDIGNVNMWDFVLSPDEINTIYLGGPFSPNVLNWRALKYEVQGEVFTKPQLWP


Molecular target: T2, Human Serum Albumin (human, UniProt P02768 25-609)
T2 construct: also called HSA
T2 sequence (P02768 25-609 limits assumed): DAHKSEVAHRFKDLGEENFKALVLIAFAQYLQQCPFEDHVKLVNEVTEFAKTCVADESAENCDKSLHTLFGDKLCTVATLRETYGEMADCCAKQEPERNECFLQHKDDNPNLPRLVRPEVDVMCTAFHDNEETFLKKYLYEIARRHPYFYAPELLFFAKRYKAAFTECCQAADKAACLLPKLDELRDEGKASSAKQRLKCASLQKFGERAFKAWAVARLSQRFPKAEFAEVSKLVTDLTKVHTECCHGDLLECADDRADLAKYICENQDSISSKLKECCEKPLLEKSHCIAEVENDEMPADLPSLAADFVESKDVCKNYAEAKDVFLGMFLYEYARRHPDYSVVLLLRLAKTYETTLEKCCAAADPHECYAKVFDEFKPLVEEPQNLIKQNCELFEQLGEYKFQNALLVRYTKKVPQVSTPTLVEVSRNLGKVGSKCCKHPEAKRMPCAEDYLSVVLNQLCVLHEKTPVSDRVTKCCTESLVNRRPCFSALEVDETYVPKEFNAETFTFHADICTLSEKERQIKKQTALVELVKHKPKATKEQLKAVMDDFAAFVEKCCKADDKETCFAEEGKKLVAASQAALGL
Assay: SPR Biacore T200, HSA on CM5 chip, ADAPT injected, 1:1 fit
Method: (§1) Sensor-based binding analysis was performed using a Biacore T200 system (GE Healthcare, Stockholm, Sweden). All analyses were conducted using CM-5 sensor chips coated with the target antigen, another irrelevant antigen and HSA. One surface was left as reference. Binding analysis was performed in PBS-T at 25° C. The ADAPT variants were diluted in PBS-T to 500 nM, 250 nM, 125 nM, 62.5 nM and 31.25 nM. The samples were injected at a flow rate of 30 ul/min for 120 s followed by injection of PBS-T for 240 s to monitor the dissociation. Surfaces were regenerated with 10 mM HCl. Kinetic parameters were determined using the Biacore Insight Evaluation software, assuming a 1:1 binding.

Row | Binder | Kd | koff | kon
1 | LSKAKAQAWHELYYYGVSDFYLSLIDKAKTVEGVEALKLHILAALP (designed binder) [ADAPT variant CRP_23] | 23 nM | 0.007 s⁻¹ | 300000 M⁻¹ s⁻¹
2 | LKVAKIIAFHELWEYGVSDFYLSLIDKAKTVEGVEALKLHILAALP (designed binder) [ADAPT variant CRP_38] | 13 nM | 0.0054 s⁻¹ | 410000 M⁻¹ s⁻¹
3 | LHYAKIMAFHELWQYGVSDFYLQLIDKAKTVEGVEALKLHILAALP (designed binder) [ADAPT variant CRP_48] | 15 nM | 0.0042 s⁻¹ | 280000 M⁻¹ s⁻¹

These reach a lower Kd. Values come first.

Row | Kd | koff | kon | Binder
4 | 7.7 nM | 0.0038 s⁻¹ | 490000 M⁻¹ s⁻¹ | LRVAKSMAWHELWSYGVSDFYLRLIDKAKTVEGVEALKLHILAALP (designed binder) [ADAPT variant CRP_09]
5 | 9.5 nM | 0.00034 s⁻¹ | 36000 M⁻¹ s⁻¹ | LIWAKASAVRELHRYGVSDFYYELIVKAKTVEGVEALKLHILAALP (designed binder) [ADAPT variant TNFα_09]
6 | 3.1 nM | 0.0014 s⁻¹ | 460000 M⁻¹ s⁻¹ | LAVAKAYAKYELAFYGVSDFYNELILKAKTVEGVEALKLHILAALP (designed binder, also called INS_03) [ADAPT variant Insulin_03]
7 | 3.3 nM | 0.0003 s⁻¹ | 92000 M⁻¹ s⁻¹ | LFRAKVWAVWELDQYGVSDFYDELIWKAKTVEGVEALKLHILAALP (designed binder) [ADAPT variant PSA_05]
8 | 3.9 nM | 0.0014 s⁻¹ | 360000 M⁻¹ s⁻¹ | LVIAKAYAQYELAFYGVSDFYSDLIKKAKTVEGVEALKLHILAALP (designed binder, also called INS_01) [ADAPT variant Insulin_01]

Molecular target: T2, Human Serum Albumin
Assay: as above
Remark: another data set of the same source
Method: as §1

Row | Binder | Kd
9 | LSKAKAQAWHELYYYGVSDFYLSLIDKAKTVEGVEALKLHILAALP (designed binder) [ADAPT variant CRP_23] | 23 nM
10 | LKVAKIIAFHELWEYGVSDFYLSLIDKAKTVEGVEALKLHILAALP (designed binder) [ADAPT variant CRP_38] | 13 nM
11 | LHYAKIMAFHELWQYGVSDFYLQLIDKAKTVEGVEALKLHILAALP (designed binder) [ADAPT variant CRP_48] | 15 nM

Further lines, results first:

Row | Kd | Binder
12 | 7.7 nM | LRVAKSMAWHELWSYGVSDFYLRLIDKAKTVEGVEALKLHILAALP (designed binder) [ADAPT variant CRP_09]
13 | 9.5 nM | LIWAKASAVRELHRYGVSDFYYELIVKAKTVEGVEALKLHILAALP (designed binder) [ADAPT variant TNFα_09]
14 | 3.1 nM | LAVAKAYAKYELAFYGVSDFYNELILKAKTVEGVEALKLHILAALP (designed binder, also called INS_03) [ADAPT variant Insulin_03]
15 | 3.3 nM | LFRAKVWAVWELDQYGVSDFYDELIWKAKTVEGVEALKLHILAALP (designed binder) [ADAPT variant PSA_05]
16 | 3.9 nM | LVIAKAYAQYELAFYGVSDFYSDLIKKAKTVEGVEALKLHILAALP (designed binder, also called INS_01) [ADAPT variant Insulin_01]

Molecular target: T3, Human recombinant Insulin (human, UniProt P01308 25-54; P01308 90-110, limits assumed)
T3 construct: also called bInsulin
T3 sequence (P01308 25-54 limits assumed, chain 1 of 2): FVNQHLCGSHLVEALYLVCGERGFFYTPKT
T3 sequence (P01308 90-110 limits assumed, chain 2 of 2): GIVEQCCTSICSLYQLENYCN
Assay: SPR Biacore T200, target on CM5 chip, ADAPT injected, 1:1 fit
Method: as §1
(§2) Variants with sufficient alpha helical structure as well as monomeric elution profiles on the SEC column were further analyzed for binding towards their target protein as well as to HSA. The binding towards the target antigen used in the selection was measured by a multi-cycle analysis using SPR, showing that several binders had affinities in the μM-pM range. […] After target binding had been established, the variants were also evaluated for their ability to simultaneously bind to HSA. This was done either through an SPR capture assay or an experiment where the ADAPT was pre-incubated with saturating conditions of HSA before the binding towards the target was analyzed. […] In total, thirteen of the characterized binders from the selections towards TNFα, PSA, ANG, MYDGF and Insulin could bind both HSA and its target antigen simultaneously. FIG. 5 contains sensorgrams for the thirteen variants in the capture assay.

Row | Kd | Binder
17 | 1300 nM | LAVAKAYAKYELAFYGVSDFYNELILKAKTVEGVEALKLHILAALP (designed binder, also called INS_03) [ADAPT variant Insulin_03]
18 | 950 nM | LVIAKAYAQYELAFYGVSDFYSDLIKKAKTVEGVEALKLHILAALP (designed binder, also called INS_01) [ADAPT variant Insulin_01]

Molecular target: T1, C-reactive protein
Assay: as above
Method: as §1, §2

Row | Kd | Binder
19 | 1900 nM | LSKAKAQAWHELYYYGVSDFYLSLIDKAKTVEGVEALKLHILAALP (designed binder) [ADAPT variant CRP_23]
20 | 1100 nM | LRVAKSMAWHELWSYGVSDFYLRLIDKAKTVEGVEALKLHILAALP (designed binder) [ADAPT variant CRP_09]
21 | 52 nM | LKVAKIIAFHELWEYGVSDFYLSLIDKAKTVEGVEALKLHILAALP (designed binder) [ADAPT variant CRP_38]
22 | 62 nM | LHYAKIMAFHELWQYGVSDFYLQLIDKAKTVEGVEALKLHILAALP (designed binder) [ADAPT variant CRP_48]

Molecular target: T4, tumor necrosis factor alpha (human (produced in the Human Secretome …, UniProt P01375 77-233, limits assumed))
T4 construct: also called TNFα; bTNFα
T4 sequence (P01375 77-233 limits assumed): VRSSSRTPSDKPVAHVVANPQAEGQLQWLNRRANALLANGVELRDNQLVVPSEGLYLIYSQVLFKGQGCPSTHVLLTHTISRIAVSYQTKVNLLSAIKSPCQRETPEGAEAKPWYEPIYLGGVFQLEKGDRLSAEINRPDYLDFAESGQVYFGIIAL
Assay: as above
Method: as §1, §2

Row | Binder | Kd
23 | LIWAKASAVRELHRYGVSDFYYELIVKAKTVEGVEALKLHILAALP (designed binder) [ADAPT variant TNFα_09] | 3.6 nM

Molecular target: T5, Prostate Specific Antigen (human (produced in the Human Secretome …, UniProt P07288 18-261, limits assumed))
T5 construct: also called PSA; bPSA
T5 sequence (P07288 18-261 limits assumed): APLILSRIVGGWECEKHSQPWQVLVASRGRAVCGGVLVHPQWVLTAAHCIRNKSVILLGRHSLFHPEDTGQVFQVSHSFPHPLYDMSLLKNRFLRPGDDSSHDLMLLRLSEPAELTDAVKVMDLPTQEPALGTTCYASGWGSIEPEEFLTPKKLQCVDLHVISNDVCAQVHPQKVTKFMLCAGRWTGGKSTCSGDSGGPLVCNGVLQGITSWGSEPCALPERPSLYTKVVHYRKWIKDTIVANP
Assay: as above
Method: as §1, §2

Row | Kd | Binder
24 | 300 nM | LFRAKVWAVWELDQYGVSDFYDELIWKAKTVEGVEALKLHILAALP (designed binder) [ADAPT variant PSA_05]

Molecular target: T3, Human recombinant Insulin
Assay: as above
Remark: another data set of the same source
Method: as §1

Row | Kd | koff | kon | Binder
25 | 1300 nM | 0.22 s⁻¹ | 180000 M⁻¹ s⁻¹ | LAVAKAYAKYELAFYGVSDFYNELILKAKTVEGVEALKLHILAALP (designed binder, also called INS_03) [ADAPT variant Insulin_03]
26 | 950 nM | 0.22 s⁻¹ | 240000 M⁻¹ s⁻¹ | LVIAKAYAQYELAFYGVSDFYSDLIKKAKTVEGVEALKLHILAALP (designed binder, also called INS_01) [ADAPT variant Insulin_01]

Molecular target: T1, C-reactive protein
Assay: as above
Remark: another data set of the same source
Method: as §1

Row | Kd | koff | kon | Binder
27 | 1900 nM | 0.0017 s⁻¹ | 890 M⁻¹ s⁻¹ | LSKAKAQAWHELYYYGVSDFYLSLIDKAKTVEGVEALKLHILAALP (designed binder) [ADAPT variant CRP_23]
28 | 1100 nM | 0.0013 s⁻¹ | 1200 M⁻¹ s⁻¹ | LRVAKSMAWHELWSYGVSDFYLRLIDKAKTVEGVEALKLHILAALP (designed binder) [ADAPT variant CRP_09]
29 | 52 nM | 0.0017 s⁻¹ | 33000 M⁻¹ s⁻¹ | LKVAKIIAFHELWEYGVSDFYLSLIDKAKTVEGVEALKLHILAALP (designed binder) [ADAPT variant CRP_38]
30 | 62 nM | 0.0012 s⁻¹ | 19000 M⁻¹ s⁻¹ | LHYAKIMAFHELWQYGVSDFYLQLIDKAKTVEGVEALKLHILAALP (designed binder) [ADAPT variant CRP_48]

Molecular target: T4, tumor necrosis factor alpha
Assay: as above
Remark: another data set of the same source
Method: as §1

Row | Binder | Kd | koff | kon
31 | LIWAKASAVRELHRYGVSDFYYELIVKAKTVEGVEALKLHILAALP (designed binder) [ADAPT variant TNFα_09] | 3.6 nM | 0.0032 s⁻¹ | 890000 M⁻¹ s⁻¹

Molecular target: T5, Prostate Specific Antigen
Assay: as above
Remark: another data set of the same source
Method: as §1

Row | Kd | koff | kon | Binder
32 | 300 nM | 0.059 s⁻¹ | 200000 M⁻¹ s⁻¹ | LFRAKVWAVWELDQYGVSDFYDELIWKAKTVEGVEALKLHILAALP (designed binder) [ADAPT variant PSA_05]
